Laboratory results published in US20230039694A1, “H[…] REDUCTASE AND USES THEREOF” (Southwest University, priority 2019, published 2023).

Tests used:
[1] = Verification on enzyme activity of HAR: hyoscyamine aldehyde reduction reaction, product identified by high-resolution mass spectrometry; assay type: biochemical, Atropa belladonna; conditions: phosphate buffer pH 6.4, 0.2 mM NADPH-4Na, 1 mM hyoscyamine aldehyde, 30 μg HAR protein, 1 h at 37.5° C.
Procedure: The constructed pET28a-HAR plasmid was converted to a prokaryotic expression stain BL21, and a positive clone was screened with PCR to obtain prokaryotic expression engineering bacteria BL21-pET28a-HAR. 100 μL of BL21-pET28a-HAR bacterial liquid was inoculated to a 30 mL of LB liquid medium containing 100 mg/L kanamycin for overnight culture at 37° C. and 200 rpm. Then, a product was respectively inoculated to 400 mL of LB liquid medium according to a ratio of 1 to 50 for activated culture at 37° C. and 200 rpm, and when OD600 was about 0.6, IPTG was added until a final concentration reached 1 mM. Culture was continued for 6 h at 37° C. and 200 rpm. The harvested bacterial liquid was subjected to centrifugation at 8000 rpm, and a supernatant was removed. Then precipitate bacteria were resuspended with a phosphate buffer, subjected to ultrasonication and then purified with a Ni-NTA filler from GE Company to obtain an HAR protein.
A hyoscyamine aldehyde reduction reaction system catalyzed by the HAR was as follows: a phosphate buffer (pH 6.4), 0.2 mM NADPH-4Na, 1 mM hyoscyamine aldehyde and 30 μg of HAR protein were incubated for 1 h at 37.5° C., and a reaction product was identified using a high-resolution mass spectrometer. […]

[2] = system: Atropa belladonna hairy roots; assay: Content of hyoscyamine in transgenic Atropa belladonna hairy roots with HAR over-expression (HPLC); assay type: cell-based
Excerpt: In order to study the effect of an HAR gene on tropane alkaloids in Atropa belladonna, a pericycle-specific high-expression vector PMT promoter::HAR was constructed, and an original plasmid was pBI121. Firstly, a 35S promoter on the original plasmid pBI121 was substituted with an AbPMT promoter by using digestion sites HindIII and Xba I; and the AbPMT promoter was subjected to PCR amplification with Atropa belladonna cDNA as a template and sequences as shown in SEQ ID NO. 7 and SEQ ID NO. 8 as primers. Then a GUS gene on the original plasmid was substituted with the HAR gene by using digestion sites BamHI and SacI; and the HAR gene was subjected to PCR amplification with Atropa belladonna cDNA as a template and sequences as shown in SEQ ID NO. 9 and SEQ ID NO. 10 as primers to obtain an HAR plant over-expression vector PMT promoter:: HAR. The primer sequences used were as follows: […]
The hairy roots were harvested after being subjected to shaking culture for 30 d in an MS liquid medium, and a material was freeze-dried to a constant weight in a freeze dryer. […] The alkaloids were dissolved with 1 mL of liquid chromatography grade methanol; the solution was filtered with a filter membrane of 0.22 μm; the content of the alkaloids was determined with HPLC; and a result was an average of three repeated experiments, where an error bar indicated a standard deviation. […]

B1: HAR: Hyoscyamine aldehyde reductase from Atropa belladonna, amino acid sequence SEQ ID NO. 4, encoded by SEQ ID NO. 3 (protein, listed as Atropa belladonna)
chain: MDSSGVLSPFTFSRRATGEEDVRLKVLYCGICHSDLGCIKNEWGWCSYPLVPGHEIVGIATEVGSKVTKFKVGDRVGVGCMVGSCGTCQNCTQNQESYCPEVIMTCASAYPDGTPTYGGFSNQMVANEKFVIRIPNSLPLDAAAPLLCAGSTVYSAMKFYGLCSQGLHLGVVGLGGLGHVAVKFAKAFGMKVTVISTSLGKKEEAINQLGADSFLINTDTEQMQGAMEVMDGIIDTVSALHPIEPLLGLLKSHQGKLIIVGLPNKQPELPVFSLINGRKMIGGSAVGGVKETQEMIDFAAEHNITADIEIVPMDYVNTAMERLEKGDVKFRFVIDVENTLVAAQT
[1]
  product of the hyoscyamine aldehyde reduction reaction catalyzed by the HAR: a product of the hyoscyamine aldehyde reduction reaction catalyzed by the HAR was hyoscyamine
[2]; AbHAR over-expression hairy roots versus non-transgenic hairy roots, same period
  content of hyoscyamine relative to non-transgenic Atropa belladonna hairy roots: 1.83-2.58 times
[2]; AbHAR over-expression hairy roots, 30 d shaking culture in MS liquid medium, ordinary hairy roots 2.32 mg/g DW
  average content of hyoscyamine in hairy roots: 4.24-5.98 mg/g DW
